Assay results taken from PMC3725419, “Structural insights into the activation of MST3 by MO25” (Biochemical and Biophysical Research Communications, 2013).

Biological target: T1, full length MO25β (human, UniProt Q9H9S4 1-337)
T1 construct: MO25β (mouse protein-25 beta), full length; plasmids are in the supplementary section; also called mouse protein-25 beta; source: E. coli BL21 (DE3) with pRARE2, purified (Glutathione-Sepharose, eluted with Prescission protease)
T1 sequence (looked up): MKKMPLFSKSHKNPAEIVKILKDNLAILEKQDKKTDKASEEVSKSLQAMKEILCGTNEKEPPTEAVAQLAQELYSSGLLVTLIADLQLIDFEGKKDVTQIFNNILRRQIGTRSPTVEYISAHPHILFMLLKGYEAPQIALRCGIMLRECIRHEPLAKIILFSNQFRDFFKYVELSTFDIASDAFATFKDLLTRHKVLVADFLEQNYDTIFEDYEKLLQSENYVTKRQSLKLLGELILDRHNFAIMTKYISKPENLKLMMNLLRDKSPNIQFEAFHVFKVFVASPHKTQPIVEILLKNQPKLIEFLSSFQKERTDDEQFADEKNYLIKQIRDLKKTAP
Test: crystal structure; MST3 (19-289) and MO25β mixed in an equimolar ratio, complex isolated on an S200 gel filtration column (20 mM Tris pH 7.5, 200 mM NaCl, 0.5 mM TCEP); sitting drop at 4 °C; two MST3:MO25β complexes in the asymmetric unit; no ATP or inhibitor
Settings: both partners purified

binding result: binds
B1: MST3 catalytic fragment (residues 19–289) (domain or fragment)
chain: not shown
notes: numbers count on: isoform b (NCBI NP_001027467.2); plasmids are described in the supplementary section; also called MST3 catalytic domain; source: E. coli BL21 (DE3) with pRARE2, purified (Ni-Sepharose, S200 gel filtration)
